Measurements from US20080118529A1.

Target: recombinant human collagen XVIII fragment endostatin (Entremed, Inc) (human) (UniProt P39060)
Assay: ELISA; protein incubated with DXS500k or buffer immobilized, overlaid with tPA in 10 mM εACA

Tissue-type plasminogen activator (tPA, Actilyse, Boehringer-Ingelheim), sequence (P00750 36-562 limits assumed): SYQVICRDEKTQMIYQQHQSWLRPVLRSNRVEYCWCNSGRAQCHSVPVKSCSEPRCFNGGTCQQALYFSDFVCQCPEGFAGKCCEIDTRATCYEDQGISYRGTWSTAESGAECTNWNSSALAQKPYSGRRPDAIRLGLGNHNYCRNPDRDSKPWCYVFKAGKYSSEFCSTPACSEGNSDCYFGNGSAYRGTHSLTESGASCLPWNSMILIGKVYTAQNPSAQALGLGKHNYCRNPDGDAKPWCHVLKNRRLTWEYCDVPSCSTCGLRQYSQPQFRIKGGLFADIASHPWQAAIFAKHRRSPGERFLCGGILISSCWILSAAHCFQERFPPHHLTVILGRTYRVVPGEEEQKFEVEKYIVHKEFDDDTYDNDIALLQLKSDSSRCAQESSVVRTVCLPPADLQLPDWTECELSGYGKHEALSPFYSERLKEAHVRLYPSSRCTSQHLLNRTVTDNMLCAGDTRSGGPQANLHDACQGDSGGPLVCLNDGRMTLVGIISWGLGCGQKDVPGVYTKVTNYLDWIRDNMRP

- factor of increase in tPA binding (protein exposed to DXS500k against protein in buffer only): 10.5 fold
Substance: Tissue-type plasminogen activator (tPA, Actilyse, Boehringer-Ingelheim) (from UniProt P00750 36-562) (enzyme)
